Experiments:
DENV1 H244A prM-E VLP = conditions: 20 mM NH4Cl, total 36 h, vs untreated cells
Method: (§1) Expression of prM-E and VLP production. WT and E H244A mutant DENV1 prM-E sequences were PCR-amplified from the pGDENV1 3.3 subclones described above, and cloned into pcDNA4/TO (Invitrogen, Life Technologies, Carlsbad, Calif.). These constructs were transfected into T-REx™-293 cells (Invitrogen, Life Technologies, Carlsbad, Calif.) using Lipofectamine™ 2000 (Invitrogen, Life Technologies, Carlsbad, Calif.) and selected in T-REx HEK medium containing 125 μg/ml Zeocin, all as previous described.
(§2) For VLP secretion studies, 2-3×10^6 cells were seeded in 10 cm plates, cultured for 24 h, and then induced by culture for 36 h in 1.5 μg/ml tetracycline in DME medium with 10% FCS at 37° C. The culture media were centrifuged at 10,000×g for 30 min to remove cell debris. VLPs were then pelleted through a 0.5 ml sucrose cushion by centrifugation at 54,000 rpm for 2 h at 4° C. using a TLS55 rotor. To test the effect of neutralizing the pH of acidic cellular compartments, cells were seeded and induced as above. After 2 h of induction the media were changed to DME medium containing 20 mM HEPES pH 8.0, 2% FCS, and 1.5 μg/ml tetracycline plus 20 mM NH4Cl as indicated, and the incubation continued for a total of 36 h. E proteins in the cell lysates were immunoprecipitated using mAb 4G2.

DENV1 WT prM-E VLP = conditions: 20 mM NH4Cl-treated vs untreated cells
Method: as §1, §2

[1] = target: DENV2 E DI/II protein (monomeric, E residues 1-291, STST tag), wild type (Dengue virus 2 New Guinea C (NGC) strain); assay: cell-based or functional assay
[2] = target: DENV2 E′ protein (dimeric E ectodomain, E residues 1-395, ST tag) (Dengue virus 2 New Guinea C (NGC) strain); assay: cell-based or functional assay
[3] = target: DENV2 E DI/II H244A protein (Dengue virus 2 New Guinea C (NGC) strain); assay: cell-based or functional assay

Cl.N [NH4Cl]
increase in production of VLP containing H244A mutant E protein (DENV1 H244A prM-E VLP): 4-7 fold | WT VLP production (DENV1 WT prM-E VLP): similar

DENV2 NGC DIII protein (LDIIIH1CS, E residues 289-430)
DI/II co-floatation with liposomes at low pH in the presence of DIII (none with BSA in place of DIII) [1]: 25%

recombinant DENV2 pr peptide (prM residues 1-86 with N-terminal GS and C-terminal tandem Strep tag)
E′ co-floatation with liposomes at pH 5.75, pr:E′ molar ratio 12:1 (about 70% with a control protein) [2]: 2% | E′ co-floatation with liposomes, pr:E′ molar ratio 3:1 [2]: 22% | E′ co-floatation with liposomes, pr:E′ molar ratio 6:1 [2]: 8% | E′ co-floatation with liposomes, pr:E′ molar ratio 24:1 [2]: 0.4% | efficiency of floatation of H244A DI/II with liposomes, in the absence of pr [3]: 43% | efficiency of floatation of H244A DI/II with liposomes, in the presence of pr [3]: 47%
